In test [1] the target is T1, amphyphisin SH3 (AMPH_HUMAN), P49418.
T1 chain: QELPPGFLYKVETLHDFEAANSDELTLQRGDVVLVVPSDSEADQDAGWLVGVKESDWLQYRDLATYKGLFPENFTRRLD
As to the kind of experiment: SPOT array.

Test [2] addresses endophilin SH3 (SH3G2_HUMAN), Q99962. As to the kind of experiment: SPOT array.

Turning to PPWVPWRPPSSAAV [Q9UN47 31-45], the normalised SPOT signal, Boehringer light units (BLU); mean over the file's lines of this peptide in test [1] came out at 829; in test [2], 835.
Take PQGPPRRPPPHILD [Q9P2A8 24-38]: the normalised SPOT signal, Boehringer light units (BLU); mean over the file's lines of this peptide came to 131 in test [1] and 4220 in test [2].
For PQQFPSRPPPPQPK [Q13443 782-796], the normalised SPOT signal, Boehringer light units (BLU); mean over the file's lines of this peptide was determined as 321 in test [1] and 5200 in test [2].
Take PQPPPRRPWASRVL [O94850 45-58]: the normalised SPOT signal, Boehringer light units (BLU); mean over the file's lines of this peptide in test [1] was determined as 79.9; in test [2], 508.
The corresponding values for PPQIPSRPVRIPPG [P50570 828-841] are 8890 and 37500.
On the same counts, the results for PPPPPTKPPETEAQ [Q9UJJ7 281-295] are 59.9 and 63.1.
Consider PPPPPPRPPSRPKL [Q9BQI5 457-471], for which the normalised SPOT signal, Boehringer light units (BLU); mean over the file's lines of this peptide in test [1] is 13700; in test [2], 13400.
For the molecule PPSGPLRPPATISP [Q9H4B5 83-97], the normalised SPOT signal, Boehringer light units (BLU); mean over the file's lines of this peptide turned out to be 105 in test [1] and 127 in test [2].
The corresponding values for PPPPPPRPPKQQPP [Q9UL51 22-36] are 994 and 1160.
PPQSPRRPELPDLA [Q00973 42-55]: the figures for the normalised SPOT signal, Boehringer light units (BLU); mean over the file's lines of this peptide in test [1] and in test [2] were 51.7 and 164, respectively.
The corresponding values for PPYGPSRPDKKQRM [Q9HA17 357-370] are 193 and 394.
As for PQEHPKRPVLGLES [O95862 118-131], the normalised SPOT signal, Boehringer light units (BLU); mean over the file's lines of this peptide amounted to 20.2 in test [1] and 4.5 in test [2].
The corresponding values for PPTRPSRPWRDLPE [Q9UIG4 65-78] are 4300 and 14300.
Turning to PQPPPPKPPRPQPP [P35556 29-43], the normalised SPOT signal, Boehringer light units (BLU); mean over the file's lines of this peptide turned out to be 513 in test [1] and 3390 in test [2].
Turning to PPSRPSRPPSHPSA [Q99700 586-600], the figures for the normalised SPOT signal, Boehringer light units (BLU); mean over the file's lines of this peptide in test [1] and in test [2] were 14900 and 20300, respectively.
Consider PPQVPSRPNRAPPG [Q05193 829-842], for which the normalised SPOT signal, Boehringer light units (BLU); mean over the file's lines of this peptide in test [1] is 11000; in test [2], 19600.
Take PPRKIKRPKRKMYR [Q96PV3 296-309]: the normalised SPOT signal, Boehringer light units (BLU); mean over the file's lines of this peptide turned out to be 17.3 in test [1] and 30.1 in test [2].
The corresponding values for PPVVPRRPPAHISS [Q9NTY8 3-17] are 6110 and 17800.
For PPPVPLRPPEHFIN [Q07890 1215-1229], the figures for the normalised SPOT signal, Boehringer light units (BLU); mean over the file's lines of this peptide in test [1] and in test [2] were 189 and 435, respectively.
On the same counts, the results for PPQVPSRPTRAPPR [Q9H0P3 825-838] are 6350 and 11000.
Turning to PPWGPFRPPYSIFQ [BAC05210 58-72], the normalised SPOT signal, Boehringer light units (BLU); mean over the file's lines of this peptide in test [1] came out at 56.3; in test [2] it was 2520.
In the case of PRAPLHRPQKPREG [Q9P1Y6 1426-1439], the normalised SPOT signal, Boehringer light units (BLU); mean over the file's lines of this peptide in test [1] was 98.2; in test [2], 194.
The corresponding values for PPTPPPRPQKTHSR [O43428 338-351] are 8950 and 41100.
As for PPVRPARPPGPLVT [Q8WYX3 74-88], the normalised SPOT signal, Boehringer light units (BLU); mean over the file's lines of this peptide in test [1] was 7480; in test [2] it was 6550.
On the same counts, the results for PQPGFRRPARPETQ [Q16624 63-76] are 2800 and 97.
Consider PPPPPPRPSKPTPS [Q14956 325-338], for which the normalised SPOT signal, Boehringer light units (BLU); mean over the file's lines of this peptide in test [1] turned out to be 1290; in test [2], 14300.
On the same counts, the results for PQTELRRPGQLIDE [Q9H1Y1 836-849] are 27.5 and 44.1.
On the same counts, the results for PRANPRRPPRAIVP [Q8WYW1 101-114] are 373 and 94.1.
The corresponding values for PPPPPLRPPPPPPP [Q9BR93 13-27] are 283 and 1160.
Turning to ASHPPPRPPKHPSV [BAC05194 549-563], the normalised SPOT signal, Boehringer light units (BLU); mean over the file's lines of this peptide in test [1] was found to be 848; in test [2] it was 5360.
Take PPQVPSRPTRAPPS [Q9UQ16 664-677]: the normalised SPOT signal, Boehringer light units (BLU); mean over the file's lines of this peptide was found to be 8780 in test [1] and 12700 in test [2].
The corresponding values for PPQPPQRPPPPTGL [O15056 1050-1064] are 1380 and 9830.
On the same counts, the results for PQSSLRRPDPGRLP [O95613 3094-3107] are 39.9 and 37.8.
Take PPPTPRRPASVNGS [O43584 96-109]: the normalised SPOT signal, Boehringer light units (BLU); mean over the file's lines of this peptide in test [1] was 170; in test [2] it was 1020.
On the same counts, the results for PPSAPRRPPVYYKF [O95696 129-142] are 71.5 and 2730.
Take ASGGPRRPERHLPP [Q9Y6R0 7-20]: the normalised SPOT signal, Boehringer light units (BLU); mean over the file's lines of this peptide in test [1] amounted to 3320; in test [2], 12600.
The corresponding values for PPPRPPRPPSPPPE [Q9UPS6 163-177] are 5310 and 9410.
ASGHIKRPMNAFMV [P35716 45-58]: the normalised SPOT signal, Boehringer light units (BLU); mean over the file's lines of this peptide was determined as 49 in test [1] and 146 in test [2].

(Values after publication PMC314469, “Protein Interaction Networks by Proteome Peptide Scanning” (PLoS Biology, 2004).)
